We go through 2 molecules from US20200291112A1 (Memorial Sloan Kettering, published 2020).

The target in assay [1] is T1, Human GPA33 (Novoprotein), recombinant protein immobilized on CM5 chips (human, UniProt Q99795 22-235).
T1 construct: also called GPA33 recombinant protein; Human Glycoprotein A33
T1 sequence: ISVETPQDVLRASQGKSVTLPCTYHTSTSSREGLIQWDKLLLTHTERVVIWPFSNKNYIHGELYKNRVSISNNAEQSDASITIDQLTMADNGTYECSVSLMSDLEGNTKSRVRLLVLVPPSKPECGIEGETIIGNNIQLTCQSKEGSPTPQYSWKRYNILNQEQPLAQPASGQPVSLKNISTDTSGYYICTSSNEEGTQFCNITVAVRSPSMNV
In words: SPR (Biacore T100), GPA33 recombinant protein immobilized on CM5 chip, antibody flowed over. In general terms: SPR reads the build-up and loss of mass on a sensor chip optically.

The target of assay [2] is T1, Human GPA33 (Novoprotein), recombinant …. In words: SPR (Biacore T100), GPA33 immobilized on CM5 chip, antibody flowed, 1:1 model; parental huA33 IgG, not the bispecific. The protocol: (§1) SPR analysis. Human GPA33 (Novoprotein, Summit, N.J.) was immobilized on CM5 chips. Five concentrations of 2-fold serially diluted huA33 IgG1 or huA33-BsAbs (starting at 20 nM) were flowed over the chip using a Biacore™ T100 system (GE Healthcare, Chicago, Ill.). Binding kinetics of huA33 were measured at 25° C. and binding kinetics of huA33-BsAbs were measured at both 25° C. and 37° C. The sensorgrams were fitted with 1:1 binding model for both to derive kinetic parameters.

The target is the same in assay [3]. In words: SPR (Biacore T100), GPA33 recombinant protein immobilized on CM5 chip, IgG1 flowed over, 25 °C, 1:1 binding model. The protocol: as §1
Assay [4] concerns the target T2, GPA33 on the surface of human colon and gastric cancer cell lines (human, UniProt Q99795 22-319).
T2 sequence (looked up): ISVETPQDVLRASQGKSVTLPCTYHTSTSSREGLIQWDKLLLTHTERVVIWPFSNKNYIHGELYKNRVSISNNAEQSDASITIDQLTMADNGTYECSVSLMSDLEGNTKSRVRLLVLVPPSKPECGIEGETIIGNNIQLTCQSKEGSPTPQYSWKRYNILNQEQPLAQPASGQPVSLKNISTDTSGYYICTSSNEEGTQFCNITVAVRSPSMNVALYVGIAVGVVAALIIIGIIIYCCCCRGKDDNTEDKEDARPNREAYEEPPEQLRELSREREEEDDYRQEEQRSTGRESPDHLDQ
In words: cell-based or functional assay.

Assay [5] deals with T1, Human GPA33 (Novoprotein), recombinant …. In words: SPR, parental huA33-BsAb, the reference of the column.
The target in assay [6] is T2, GPA33 on the surface of human colon and …. In words: FACS staining of SW1222 colon cancer cells with titrated huA33-BsAb, geometric mean MFI [contd.) D].
Assay [7] has as its target T1, Human GPA33 (Novoprotein), recombinant …. In words: SPR (Biacore T100), human GPA33 immobilized on CM5 chip, huA33-BsAb flowed over, 25 °C, 1:1 binding model [contd.) C]. The method, then: as §1
For assay [8] the target is unchanged. Nature of the assay: SPR (Biacore T100), human GPA33 immobilized on CM5 chip, huA33-BsAb flowed over, 37 °C, 1:1 binding model [contd.) C]. The protocol:
as §1

Assay [9] shares this target. Nature of the assay: SPR, GPA33 immobilized on CM5 chip, parental huA33-BsAb; temperature not given for this table; the KD column head prints no unit. The protocol:
as §1

Assay [10] has the same target. In words: SPR (Biacore T100), GPA33 immobilized on CM5 chip, antibody flowed, 1:1 model; measured at 25 C and 37 C; bispecific huA33-BsAb; GPA33 immobilized on CM5 chip; apparent affinity (avidity). The method, then:
as §1

Assay [11] has the same target. Nature of the assay: SPR (Biacore T100), human GPA33 immobilized on CM5 chip, huA33-BsAb flowed over, 25 °C, 1:1 binding model; the KD column head prints no unit, M follows from the ka and kd units [contd.) C]. The method, then:
as §1

For assay [12] the target is unchanged. Nature of the assay: SPR (Biacore T100), human GPA33 immobilized on CM5 chip, huA33-BsAb flowed over, 37 °C, 1:1 binding model; the KD column head prints no unit, M follows from the ka and kd units [contd.) C]. The method, then: as §1

B1: huA33-IgG1 (H2L2) (antibody, V domains shown)
VH: EVQLVESGGGLVKPGGSLRLSCAASGFAFSTYDMSWVRQAPGKRLEWVATISSGGSYTYYLDSVKGRFTISRDNAKNSLYLQMNSLRAEDTAVYYCAPTTVVPFAYWGQGTLVTVSS
VL: DIQMTQSQSSLSTSVGDRVTITCKASQNVRTVVAWYQQKPGKSPKTLIYLASNRHTGVPSRFSGSGSGTEFTLTISNVQPEDFADYFCLQHWSYPLTFGSGTKLEIKR
notes: Humanized A33 IgG1, version H2L2; also called 3A3-H2L2; 3A3-H2/L2
By koff is commonly meant the rate constant with which the complex falls apart. For orientation: kon means the rate constant with which the complex forms. B1: the Kd in assay [1] is 0.169 nM; in assay [2], 0.13 nM; in assay [3], 0.169 nM. Moreover, the koff in [1] and in assay [3] was 0.000363 s⁻¹ each time. For the same molecule, the kon in [1] and in [3] was 2.15e+06 M⁻¹ s⁻¹ throughout.

B2: huA33-BsAb (bispecific antibody, human IgG1, kappa, N297A)
heavy: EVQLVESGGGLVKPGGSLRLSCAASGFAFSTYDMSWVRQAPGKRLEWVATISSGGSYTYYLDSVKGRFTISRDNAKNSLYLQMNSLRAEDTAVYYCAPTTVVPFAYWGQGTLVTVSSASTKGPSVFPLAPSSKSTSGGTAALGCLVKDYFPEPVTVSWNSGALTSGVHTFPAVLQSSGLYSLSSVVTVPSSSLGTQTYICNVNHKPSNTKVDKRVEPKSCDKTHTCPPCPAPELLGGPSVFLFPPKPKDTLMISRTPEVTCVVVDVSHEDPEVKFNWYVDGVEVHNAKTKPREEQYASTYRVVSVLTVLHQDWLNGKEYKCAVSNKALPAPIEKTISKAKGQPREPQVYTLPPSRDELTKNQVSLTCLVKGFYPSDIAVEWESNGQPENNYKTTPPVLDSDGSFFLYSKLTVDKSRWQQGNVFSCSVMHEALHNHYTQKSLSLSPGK
light: DIQMTQSQSSLSTSVGDRVTITCKASQNVRTVVAWYQQKPGKSPKTLIYLASNRHTGVPSRFSGSGSGTEFTLTISNVQPEDFADYFCLQHWSYPLTFGSGTKLEIKRTVAAPSVFIFPPSDEQLKSGTASVVCLLNNFYPREAKVQWKVDNALQSGNSQESVTEQDSKDSTYSLSSTLTLSKADYEKHKVYACEVTHQGLSSPVTKSFNRGECTSGGGGSGGGGSGGGGSQVQLVQSGGGVVQPGRSLRLSCKASGYTFTRYTMHWVRQAPGKCLEWIGYINPSRGYTNYNQKFKDRFTISRDNSKNTAFLQMDSLRPEDTGVYFCARYYDDHYSLDYWGQGTPVTVSSGGGGSGGGGSGGGGSGGGGSGGGGSGGGGSDIQMTQSPSSLSASVGDRVTITCSASSSVSYMNWYQQTPGKAPKRWIYDTSKLASGVPSRFSGSGSGTDYTFTISSLQPEDIATYYCQQWSSNPFTFGCGTKLQITR
notes: huA33 (H2L2) IgG1 with the humanized OKT3 scFv fused to the C-terminus of the light chain via a (G4S)3 linker; also called T-cell engaging huA33-BsAb; humanized A33-bispecific antibody
Take B2: the “EC50 of T-cell dependent cytotoxicity against Colo205 cells (sorted fresh CD4 memory T cells, E:T=5:1, 48 hours, LDH assay)” value in assay [4] was found to be 0.025 nM. Also, the “Fold difference/Parental” value in assay [5] stood at 1 fold. Besides, the “EC50 (read off the curve)” value in [6] is roughly 0.3 µg. Moreover, the koff in assay [7] came out at 0.000478 s⁻¹; in [8], 0.00167 s⁻¹. Further, the results for the kon in assay [7] and in [8] were 2.25e+06 M⁻¹ s⁻¹ and 6.81e+06 M⁻¹ s⁻¹, respectively. In addition, the Kd is 0.168 nM in assay [9], roughly 0.2 nM in assay [10], 0.212 nM in [11] and 0.245 nM in [12].
